Results as given in patent US20160304573A1, “FIBROMODULIN PEPTIDE” (The Regents of the University of California, priority 2010, published 2016).

Legend:
TGF-β1 = TGF-β1 (Homo sapiens, UniProt P01137); test: ELISA analysis of binding with TGF-β1; conditions: BSA as negative control; FIG. 3
Text: Bovine serum albumin (BSA) was used as negative control.
SUMO-CAT from the recombinant bacteria harboring control plasmid pET_SUMO/CAT was used as negative control. To the knowledge of inventors, the TGF-binding sites within FMOD have not been reported.

Rat-2 fibroblasts = test: Z-axes series sequential images, relative height of nodules; type: cell-based; conditions: FMOD and TGF-β1 treatment
Text: But for the nodules formed with FMOD and TGF-β1 treatment (yellow arrows), the cells were stacked on top of one another to a height of about 48 μm.

[1] = tested on: α-smooth muscle actin (α-SMA) expression; test: α-SMA expression staining; type: cell-based
Experimental: Exemplary tests on effects of FMOD and TGF-β or FMOD peptides and TGF-β on α-SMA expression were performed and shown in FIGS. 25A-25D. Expression levels of α-SMA, which is a marker for the transition of fibroblasts to myofibroblasts, were measured and presented in staining in these figures.

[2] = 100 pM TGF-β1+200 nM Fibromodulin, FIG. 25D

Sequence of TGF-β1 (P01137 279-390 limits assumed): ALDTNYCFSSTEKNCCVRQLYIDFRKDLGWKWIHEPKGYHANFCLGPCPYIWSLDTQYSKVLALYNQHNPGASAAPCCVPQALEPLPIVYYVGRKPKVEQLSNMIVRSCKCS

binding with TGF-β1 in ELISA assay (TGF-β1): able to bind with TGF-β1
B1: FMOD: recombinant human fibromodulin whole protein (SEQ ID NO:1) produced in CHO-K1 (protein, listed as Homo sapiens)
chain: MQWTSLLLLAGLFSLSQAQYEDDPHWWFHYLRSQQSTYYDPYDPYPYETYEPYPYGVDEGPAYTYGSPSPPDPRDCPQECDCPPNFPTAMYCDNRNLKYLPFVPSRMKYVYFQNNQITSIQEGVFDNATGLLWIALHGNQITSDKVGRKVFSKLRHLERLYLDHNNLTRMPGPLPRSLRELHLDHNQISRVPNNALEGLENLTALYLQHNEIQEVGSSMRGLRSLILLDLSYNHLRKVPDGLPSALEQLYMEHNNVYTVPDSYFRGAPKLLYVRLSHNSLTNNGLASNTFNSSSLLELDLSYNQLQKIPPVNTNLENLYLQGNRINEFSISSFCTVVDVVNFSKLQVLRLDGNEIKRSAMPADAPLCLRLASLIEI
height of stacked cells in nodules (Rat-2 fibroblasts): about 48 μm
cell density/cell aggregation [1, 2]: increased cell density/cell aggregation
α-SMA staining [1, 2]: significantly increased α-SMA staining
α-SMA staining ([1]; mono-treatment (200 nM FMOD or 100 pM TGF-β1), FIGS. 25B, 25C): minimal α-SMA staining
